Laboratory results as given in patent publication US20240254201A1.

Target: EBOV GP on EBOV-eGFP-Mayinga authentic virus (Ebola virus (EBOV), Mayinga) (UniProt Q05320)
Experiment: cell-based or functional assay

Chain of EBOV GP on EBOV-eGFP-Mayinga authentic virus (Ebola virus (EBOV), Mayinga) (Q05320 33-676 limits assumed): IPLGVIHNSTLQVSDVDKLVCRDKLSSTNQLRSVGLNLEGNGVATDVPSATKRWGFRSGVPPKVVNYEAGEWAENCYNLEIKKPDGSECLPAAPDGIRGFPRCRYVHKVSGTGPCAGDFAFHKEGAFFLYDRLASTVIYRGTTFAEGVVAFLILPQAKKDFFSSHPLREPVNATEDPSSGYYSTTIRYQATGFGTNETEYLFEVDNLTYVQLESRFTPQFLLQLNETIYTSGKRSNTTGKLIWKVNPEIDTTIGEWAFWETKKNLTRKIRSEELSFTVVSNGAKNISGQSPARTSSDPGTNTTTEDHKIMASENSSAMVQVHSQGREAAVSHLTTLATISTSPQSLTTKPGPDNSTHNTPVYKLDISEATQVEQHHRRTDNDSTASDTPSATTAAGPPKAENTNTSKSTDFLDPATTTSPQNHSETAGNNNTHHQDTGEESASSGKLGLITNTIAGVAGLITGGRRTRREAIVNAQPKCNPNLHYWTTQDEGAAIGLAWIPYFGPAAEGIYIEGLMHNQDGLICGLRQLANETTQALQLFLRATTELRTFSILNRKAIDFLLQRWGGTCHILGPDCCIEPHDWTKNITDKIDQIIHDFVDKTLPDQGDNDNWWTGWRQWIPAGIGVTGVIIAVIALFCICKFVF

CA45 (antibody) gave an IC50, EBOV-eGFP-Mayinga authentic virus neutralization test of 8.51 µg/mL and an IC90, EBOV-eGFP-Mayinga authentic virus neutralization test of 13 µg/mL.
